Results as given in US20140274782A1, “AFFINITY REAGENTS AND METHODS FOR DETECTION, PURIFICATION, AND PROTEOMIC ANALYSIS OF METHYLATED PROTEINS” (The Board of Trustees of the Leland Stanford Junior …, priority 2013, published 2014).

T1: G9a and GLP (Homo sapiens, UniProt Q96KQ7+Q9H9B1)
T1 sequence (Q96KQ7 2-1210 limits assumed): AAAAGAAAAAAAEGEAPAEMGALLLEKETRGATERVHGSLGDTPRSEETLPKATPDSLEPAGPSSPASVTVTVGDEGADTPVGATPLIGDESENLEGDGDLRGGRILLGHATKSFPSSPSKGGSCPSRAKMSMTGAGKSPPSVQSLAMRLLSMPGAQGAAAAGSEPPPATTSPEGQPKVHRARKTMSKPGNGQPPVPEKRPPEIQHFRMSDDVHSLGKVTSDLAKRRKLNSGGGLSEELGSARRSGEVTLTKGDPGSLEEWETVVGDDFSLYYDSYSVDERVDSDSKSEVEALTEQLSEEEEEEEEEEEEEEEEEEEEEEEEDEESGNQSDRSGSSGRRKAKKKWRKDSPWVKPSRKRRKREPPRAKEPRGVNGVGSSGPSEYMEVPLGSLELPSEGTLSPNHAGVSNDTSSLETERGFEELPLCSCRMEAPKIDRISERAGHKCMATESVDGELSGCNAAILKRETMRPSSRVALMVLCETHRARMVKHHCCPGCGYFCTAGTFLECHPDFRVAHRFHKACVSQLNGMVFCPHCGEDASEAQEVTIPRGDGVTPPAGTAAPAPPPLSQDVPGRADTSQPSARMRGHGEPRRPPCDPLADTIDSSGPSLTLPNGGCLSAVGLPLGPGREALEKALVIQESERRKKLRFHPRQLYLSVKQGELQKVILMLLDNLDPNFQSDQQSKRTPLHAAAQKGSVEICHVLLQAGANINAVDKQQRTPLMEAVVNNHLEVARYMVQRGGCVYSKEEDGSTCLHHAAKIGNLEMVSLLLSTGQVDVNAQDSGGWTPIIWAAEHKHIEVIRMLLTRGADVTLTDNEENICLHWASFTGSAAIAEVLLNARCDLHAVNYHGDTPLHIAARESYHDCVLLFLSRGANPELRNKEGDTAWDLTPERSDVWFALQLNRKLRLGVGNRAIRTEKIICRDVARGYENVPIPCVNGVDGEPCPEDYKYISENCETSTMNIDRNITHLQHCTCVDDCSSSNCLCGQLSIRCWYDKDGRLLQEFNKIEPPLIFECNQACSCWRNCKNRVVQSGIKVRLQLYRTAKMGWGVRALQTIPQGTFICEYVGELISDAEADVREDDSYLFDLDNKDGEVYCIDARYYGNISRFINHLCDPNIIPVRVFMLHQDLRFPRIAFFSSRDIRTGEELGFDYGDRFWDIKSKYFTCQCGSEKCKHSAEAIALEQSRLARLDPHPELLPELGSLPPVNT
T1 sequence (Q9H9B1 2-1298 limits assumed): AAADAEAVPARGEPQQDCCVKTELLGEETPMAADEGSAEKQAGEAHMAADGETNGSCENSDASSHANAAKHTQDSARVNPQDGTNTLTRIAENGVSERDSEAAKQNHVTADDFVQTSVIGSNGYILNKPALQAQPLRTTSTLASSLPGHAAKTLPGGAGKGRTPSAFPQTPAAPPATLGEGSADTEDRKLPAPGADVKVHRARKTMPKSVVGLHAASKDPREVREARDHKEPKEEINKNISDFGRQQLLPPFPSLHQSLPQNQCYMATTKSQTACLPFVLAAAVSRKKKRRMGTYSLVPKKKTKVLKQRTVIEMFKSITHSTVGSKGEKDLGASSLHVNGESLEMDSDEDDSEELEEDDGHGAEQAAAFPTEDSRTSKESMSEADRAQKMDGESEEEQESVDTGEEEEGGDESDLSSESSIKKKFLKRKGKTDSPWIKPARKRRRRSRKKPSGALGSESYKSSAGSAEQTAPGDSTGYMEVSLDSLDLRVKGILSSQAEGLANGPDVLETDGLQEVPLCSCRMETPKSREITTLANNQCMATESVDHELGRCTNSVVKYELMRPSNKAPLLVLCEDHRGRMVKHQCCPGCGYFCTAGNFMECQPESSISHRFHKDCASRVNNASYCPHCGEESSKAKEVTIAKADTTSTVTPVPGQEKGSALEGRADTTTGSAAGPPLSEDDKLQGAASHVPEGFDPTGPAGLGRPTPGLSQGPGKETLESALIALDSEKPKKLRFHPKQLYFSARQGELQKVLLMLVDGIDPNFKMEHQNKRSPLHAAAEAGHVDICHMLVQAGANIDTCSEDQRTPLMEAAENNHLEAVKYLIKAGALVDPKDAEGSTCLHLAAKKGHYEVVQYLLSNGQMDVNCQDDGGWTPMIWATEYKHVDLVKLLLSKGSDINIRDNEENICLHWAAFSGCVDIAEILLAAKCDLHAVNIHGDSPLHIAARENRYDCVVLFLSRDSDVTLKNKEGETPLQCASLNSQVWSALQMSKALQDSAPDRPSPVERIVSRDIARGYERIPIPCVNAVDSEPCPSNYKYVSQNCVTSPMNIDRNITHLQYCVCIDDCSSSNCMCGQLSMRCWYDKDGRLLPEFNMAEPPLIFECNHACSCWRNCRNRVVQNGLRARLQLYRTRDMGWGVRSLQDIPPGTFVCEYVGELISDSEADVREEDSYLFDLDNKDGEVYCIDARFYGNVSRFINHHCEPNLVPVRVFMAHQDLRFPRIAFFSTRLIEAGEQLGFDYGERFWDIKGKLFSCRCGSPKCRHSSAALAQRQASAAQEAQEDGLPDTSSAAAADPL

B1: DRG1 (protein, UniProt Q9Y295 2-367, looked up)
Developmentally-regulated …: SSTLAKIAEIEAEMARTQKNKATAHHLGLLKARLAKLRRELITPKGGGGGGPGEGFDVAKTGDARIGFVGFPSVGKSTLLSNLAGVYSEVAAYEFTTLTTVPGVIRYKGAKIQLLDLPGIIEGAKDGKGRGRQVIAVARTCNLILIVLDVLKPLGHKKIIENELEGFGIRLNSKPPNIGFKKKDKGGINLTATCPQSELDAETVKSILAEYKIHNADVTLRSDATADDLIDVVEGNRVYIPCIYVLNKIDQISIEELDIIYKVPHCVPISAHHRWNFDDLLEKIWDYLKLVRIYTKPKGQLPDYTSPVVLPYSRTTVEDFCMKIHKNLIKEFKYALVWGLSVKHNPQKVGKDHTLEDEDVIQIVKK
B2: SFPQ (protein, UniProt P23246 1-707, looked up)
Splicing factor, proline- and …: MSRDRFRSRGGGGGGFHRRGGGGGRGGLHDFRSPPPGMGLNQNRGPMGPGPGQSGPKPPIPPPPPHQQQQQPPPQQPPPQQPPPHQPPPHPQPHQQQQPPPPPQDSSKPVVAQGPGPAPGVGSAPPASSSAPPATPPTSGAPPGSGPGPTPTPPPAVTSAPPGAPPPTPPSSGVPTTPPQAGGPPPPPAAVPGPGPGPKQGPGPGGPKGGKMPGGPKPGGGPGLSTPGGHPKPPHRGGGEPRGGRQHHPPYHQQHHQGPPPGGPGGRSEEKISDSEGFKANLSLLRRPGEKTYTQRCRLFVGNLPADITEDEFKRLFAKYGEPGEVFINKGKGFGFIKLESRALAEIAKAELDDTPMRGRQLRVRFATHAAALSVRNLSPYVSNELLEEAFSQFGPIERAVVIVDDRGRSTGKGIVEFASKPAARKAFERCSEGVFLLTTTPRPVIVEPLEQLDDEDGLPEKLAQKNPMYQKERETPPRFAQHGTFEYEYSQRWKSLDEMEKQQREQVEKNMKDAKDKLESEMEDAYHEHQANLLRQDLMRRQEELRRMEELHNQEMQKRKEMQLRQEEERRRREEEMMIRQREMEEQMRRQREESYSRMGYMDPRERDMRMGGGGAMNMGDPYGSGGQKFPPLGGGGGIGYEANPGVPPATMSGSMMGSDMRTERFGQGGAGPVGGQGPRGMGPGTPAGYGRGREEYEGPNKKPRF
B3: PABPC4 (protein, UniProt Q13310 1-644, looked up)
Polyadenylate-binding protein …: MNAAASSYPMASLYVGDLHSDVTEAMLYEKFSPAGPVLSIRVCRDMITRRSLGYAYVNFQQPADAERALDTMNFDVIKGKPIRIMWSQRDPSLRKSGVGNVFIKNLDKSIDNKALYDTFSAFGNILSCKVVCDENGSKGYAFVHFETQEAADKAIEKMNGMLLNDRKVFVGRFKSRKEREAELGAKAKEFTNVYIKNFGEEVDDESLKELFSQFGKTLSVKVMRDPNGKSKGFGFVSYEKHEDANKAVEEMNGKEISGKIIFVGRAQKKVERQAELKRKFEQLKQERISRYQGVNLYIKNLDDTIDDEKLRKEFSPFGSITSAKVMLEDGRSKGFGFVCFSSPEEATKAVTEMNGRIVGSKPLYVALAQRKEERKAHLTNQYMQRVAGMRALPANAILNQFQPAAGGYFVPAVPQAQGRPPYYTPNQLAQMRPNPRWQQGGRPQGFQGMPSAIRQSGPRPTLRHLAPTGSECPDRLAMDFGGAGAAQQGLTDSCQSGGVPTAVQNLAPRAAVAAAAPRAVAPYKYASSVRSPHPAIQPLQAPQPAVHVQGQEPLTASMLAAAPPQEQKQMLGERLFPLIQTMHSNLAGKITGMLLEIDNSELLHMLESPESLRSKVDEAVAVLQAHHAKKEAAQKVGAVAAATS
B4: C14orf166 (protein, UniProt Q9Y224 1-244, looked up)
RNA transcription, …: MFRRKLTALDYHNPAGFNCKDETEFRNFIVWLEDQKIRHYKIEDRGNLRNIHSSDWPKFFEKYLRDVNCPFKIQDRQEAIDWLLGLAVRLEYGDNAEKYKDLVPDNSKTADNATKNAEPLINLDVNNPDFKAGVMALANLLQIQRHDDYLVMLKAIRILVQERLTQDAVAKANQTKEGLPVALDKHILGFDTGDAVLNEAAQILRLLHIEELRELQTKINEAIVAVQAIIADPKTDHRLGKVGR
B5: DDX17 (protein, UniProt Q92841 1-729, looked up)
Probable ATP-dependent RNA …: MPTGFVAPILCVLLPSPTREAATVASATGDSASERESAAPAAAPTAEAPPPSVVTRPEPQALPSPAIRAPLPDLYPFGTMRGGGFGDRDRDRDRGGFGARGGGGLPPKKFGNPGERLRKKKWDLSELPKFEKNFYVEHPEVARLTPYEVDELRRKKEITVRGGDVCPKPVFAFHHANFPQYVMDVLMDQHFTEPTPIQCQGFPLALSGRDMVGIAQTGSGKTLAYLLPAIVHINHQPYLERGDGPICLVLAPTRELAQQVQQVADDYGKCSRLKSTCIYGGAPKGPQIRDLERGVEICIATPGRLIDFLESGKTNLRRCTYLVLDEADRMLDMGFEPQIRKIVDQIRPDRQTLMWSATWPKEVRQLAEDFLRDYTQINVGNLELSANHNILQIVDVCMESEKDHKLIQLMEEIMAEKENKTIIFVETKRRCDDLTRRMRRDGWPAMCIHGDKSQPERDWVLNEFRSGKAPILIATDVASRGLDVEDVKFVINYDYPNSSEDYVHRIGRTARSTNKGTAYTFFTPGNLKQARELIKVLEEANQAINPKLMQLVDHRGGGGGGGGRSRYRTTSSANNPNLMYQDECDRRLRGVKDGGRRDSASYRDRSETDRAGYANGSGYGSPNSAFGAQAGQYTYGQGTYGAAAYGTSSYTAQEYGAGTYGASSTTSTGRSSQSSSQQFSGIGRSGQQPQPLMSQQFAQPPGATNMIGYMGQTAYQYPPPPPPPPPSRK

Assays:
3×MBT domain of L3MBTL1 = test: Triple SILAC pull-down, 3xMBT/3xMBTD355N ratio (cytoplasmic, nuclear and chromatin fractions of 293T cells); type: binding, human; conditions: SILAC ratio, pull-down 3xMBT vs 3xMBTD355N; for 3xMBT/D355N UNC Heavy: experiment with UNC0638 in heavy SILAC media; for 3xMBT/D355N UNC Light: experiment with UNC0638 in light SILAC media;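 for all read-outs here: proteins quantified with MaxQuant, requiring at least two unique peptides and quantification in both label directions, normalized to the mean of proteins from a digested loading control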
G9a and GLP = molecular target: T1, G9a and GLP; test: Triple SILAC pull-down after UNC0638 treatment of 293T cells, DMSO/UNC0638 ratio of protein captured by 3×MBT; type: cell-based; parameters: cells were treated for 24 hours with UNC0638 at 2.5 μM or DMSO vehicle control; endogenous in cells; host or cells: HEK 293T; conditions: for Relative to UNC0638 UNC Heavy / Relative to UNC0638 UNC Light: SILAC ratio DMSO/UNC0638 of protein pulled down with 3xMBT; for Relative to UNC0638 UNC Heavy: UNC0638 in heavy SILAC media; for Relative to UNC0638 UNC Light: UNC0638 in light SILAC media; for Relative to UNC0638 Average: average of UNC Light and UNC Heavy experiments;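 for all read-outs here: mass spectrometry (Q-Exactive) SILAC quantitation, DMSO/UNC0638 ratio computed after subtracting 3×MBTD355N mutant pull-down background, only proteins with at least twofold 3×MBT over mutant signal considered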

Molecule	3xMBT/D355N UNC Heavy (3×MBT domain of L3MBTL1) [log base 2]	3xMBT/D355N UNC Light (3×MBT domain of L3MBTL1) [log base 2]	Relative to UNC0638 UNC Heavy (G9a and GLP) [log base 2]	Relative to UNC0638 UNC Light (G9a and GLP) [log base 2]	Relative to UNC0638 Average (G9a and GLP) [log base 2]
B1	3.49	3.66	0.36	−0.03	0.16
B2	3.19	3.86	0.08	0.25	0.17
B3	2.94	3.59	0.16	0.17	0.16
B4	3.09	3.13	0.09	0.24	0.16
B5	2.61	2.86	0.21	0.12	0.16
